Test results published in article PMC4339652, “Antibacterial toxin colicin N and phage protein G3p compete with TolB for a binding site on TolA” (Microbiology, 2015).
“And” between values parts separate entries of the source, which are not always exact repeats. Equal entries are not always repeated.

B2: TolAIII (TolA domain III, residues 296-421), wild type (domain or fragment, E. coli, UniProt P19934 296-421, looked up)
chain: DIFGELSSGKNAPKTGGGAKGNNASPAGSGNTKNNGASGADINNYAGQIKSAIESKFYDASSYAGKTCTLRIKLAPDGMLLDIKPEGGDPALCQAALAAAKLAKIPKPPSQAVYEVFKNAPLDFKP
notes: TolA, E. coli, 421-residue protein; C-terminal domain III, residues 296-421, soluble truncate lacking TolAI-II; also called TolA_(III296–421); WT TolAIII

Experiments:
Settings in all cases: both partners purified
[1] = biological target: B2; test: SPR; TolAIII WT, D418P or K420P amine-coupled to a CM5 chip (~550 RU; 155 RU TolAIII for ColN-T kinetics); concentration series of analyte (ColN-T, G3p-N1 0.2-50 µM; G3p-N1 V44P up to 250 µM); Biacore X-100, 25 °C, HEPES-EP (10 mM HEPES pH 7.4, 150 mM NaCl, 3.4 mM EDTA, 0.05 % P20); blank surface subtracted; kinetic fits and steady-state affinity
[2] = biological target: T1, TolB, wild type (UniProt P0A855 22-430); test: SPR; TolAIII (645 RU) amine-coupled to CM5; WT TolB or TolB mutants passed over (5 µM in Fig. 4e); 1:1 Langmuir fits and steady-state affinity; HEPES-EP, 25 °C
T1 construct: TolB, 47 kDa two-domain soluble periplasmic protein; also called WT TolB

[3] = biological target: T2, TolB DGSY-AGAA (UniProt P0A855 22-430, DGSY-AGAA); test: as above
T2 construct: TolB with DGSY (109-112) changed to AGAA

B1: G3p-N1, N-terminal (N1) domain of gene-3-protein of filamentous bacteriophage M13 (domain or fragment, UniProt P69168 19-104, looked up)
chain: AETVESCLAKPHTENSFTNVWKDDKTLDRYANYEGCLWNATGVVVCTGDETQCYGTWVPIGLAIPENEGGGSEGGGSEGGGSEGGG
notes: Gene-3-protein (G3p, minor coat protein), filamentous bacteriophage M13, N1 domain; also called G3p-sN1
With B1 the Kd [1] was 15 µM and 11.9 µM, the koff [1] was 0.31 ± 0.002 s⁻¹ and the kon [1] was 20600 M⁻¹ s⁻¹.

In the case of B2, the Kd [2] is reported as 37 µM and 43.2 µM, the koff [2] is reported as 0.3 ± 0.004 s⁻¹ and the kon [2] is reported as 8270 M⁻¹ s⁻¹. The Kd [3] was 39 µM and 48.3 µM, the koff [3] was 0.1 ± 0.002 s⁻¹ and the kon [3] was 2710 M⁻¹ s⁻¹.

B3: Colicin N translocation domain, ColN-T (ColN 1-90) (domain or fragment)
chain: MGSNGADNAHNNAFGGGKNPGIGNTSGAGSNGSASSNRGNSNGWSWSNKPHKNDGFHSDGSYHITFHGDNNSKPKPGGNSGNRGNNGDGA
notes: Colicin N, disordered N-terminal translocation (T) domain, residues 1-90; also called ColN-T_(1–90); T_(1–90)
In the case of B3, the Kd [1] is reported as 1.8 ± 0.2 µM.
